Reference: paper PMC12930632, “Free fatty acid receptor 2 allosterism is defined by cellular context” (Cell Communication and Signaling : CCS, 2026)
Like-named read-outs stand apart in the source and are kept apart here.

Assays:
FFA2R (GPR43) = molecular target: T1, FFA2R (GPR43) (Homo sapiens, UniProt O15552); assay: ebBRET effector membrane translocation assay (Rap1GAP-RlucII / rGFP-CAAX), Galpha-i1 activation; format: cell-based
T1 construct: gene FFAR2; full-length WT receptor, transiently transfected in HEK293T cells together with a defined Galpha subunit, Rap1GAP-RlucII and rGFP-CAAX; plasmid from cDNA.org
T1 sequence (O15552 1-330): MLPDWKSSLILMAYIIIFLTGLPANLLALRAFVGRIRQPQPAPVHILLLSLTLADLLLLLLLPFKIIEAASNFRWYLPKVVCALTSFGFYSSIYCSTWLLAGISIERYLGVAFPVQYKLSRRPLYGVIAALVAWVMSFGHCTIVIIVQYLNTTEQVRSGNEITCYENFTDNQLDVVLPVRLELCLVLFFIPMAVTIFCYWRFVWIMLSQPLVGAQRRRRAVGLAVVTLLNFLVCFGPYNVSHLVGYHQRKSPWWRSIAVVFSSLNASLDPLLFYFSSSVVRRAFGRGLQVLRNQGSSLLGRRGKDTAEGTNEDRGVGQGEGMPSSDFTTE
Excerpt: ebBRET effector membrane translocation assay (Rap1GAP-RlucII / rGFP-CAAX), Galpha-i1 activation on FFA2R (GPR43)

[1] = molecular target: T2, free fatty acid receptor 2 (FFA2R; GPR43), WT (human) (UniProt O15552)
T2 sequence: T1 sequence (O15552 1-330)

[2] = molecular target: T2, free fatty acid receptor 2 (FFA2R; GPR43), WT (human); remark: listed apart in the source
[3] = molecular target: T2, free fatty acid receptor 2 (FFA2R; GPR43), WT (human); remark: listed apart in the source

Chain of β-arrestin2-RlucII (P32121 whole entry): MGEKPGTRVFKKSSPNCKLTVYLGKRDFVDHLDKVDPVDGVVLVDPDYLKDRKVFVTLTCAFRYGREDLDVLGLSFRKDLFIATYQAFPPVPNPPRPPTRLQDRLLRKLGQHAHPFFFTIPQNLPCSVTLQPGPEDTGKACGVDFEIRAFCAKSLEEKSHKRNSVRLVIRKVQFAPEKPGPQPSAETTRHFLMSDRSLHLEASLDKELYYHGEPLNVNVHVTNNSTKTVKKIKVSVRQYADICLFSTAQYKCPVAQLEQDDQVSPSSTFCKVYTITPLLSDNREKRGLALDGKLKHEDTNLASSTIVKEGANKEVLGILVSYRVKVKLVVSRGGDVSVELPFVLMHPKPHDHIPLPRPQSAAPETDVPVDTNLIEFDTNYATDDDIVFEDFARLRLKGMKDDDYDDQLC
Chain of β-arrestin1-RlucII (P49407 whole entry): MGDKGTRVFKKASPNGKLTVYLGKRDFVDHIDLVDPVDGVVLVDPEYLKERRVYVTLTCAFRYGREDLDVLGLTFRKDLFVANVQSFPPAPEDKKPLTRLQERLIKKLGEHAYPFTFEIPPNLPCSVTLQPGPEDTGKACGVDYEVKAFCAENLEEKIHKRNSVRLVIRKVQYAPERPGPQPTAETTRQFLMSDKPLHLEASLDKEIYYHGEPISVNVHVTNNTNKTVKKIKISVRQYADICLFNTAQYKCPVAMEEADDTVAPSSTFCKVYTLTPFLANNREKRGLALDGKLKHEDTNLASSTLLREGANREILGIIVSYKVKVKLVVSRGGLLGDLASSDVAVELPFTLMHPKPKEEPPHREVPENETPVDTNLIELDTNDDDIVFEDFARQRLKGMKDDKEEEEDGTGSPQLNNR

## Cc1nc(NC(=N)N)sc1-c1cccc(NC(=O)c2ccc(F)cc2)c1 [AZ1729]
FFA2R (GPR43); read-out: AZ1729 / EC50
  EC50: 41 nM

## CC(C)(C)[C@H](C(=O)Nc1ncc(-c2ccccc2)s1)c1ccc(Cl)cc1 [Cmp58, (S)-2-(4-chlorophenyl)-3,3-dimethyl-N-(5-phenylthiazol-2-yl)butanamide]
FFA2R (GPR43); read-out: Cmp58 / EC50
  EC50: 2280 nM

## Gα11 (from UniProt P29992 1-359) (natural protein)
[1]
  ebBRET (EMTA) max response, p63RhoGEF-RlucII + rGFP-CAAX, HEK293T; propionate series after AZ1729 (1 µM, 5 min), vehicle and modulator-alone signals subtracted: 1.36 ∆BRET^2
  ebBRET (EMTA) max response, p63RhoGEF-RlucII + rGFP-CAAX, HEK293T; propionate series after Cmp58 (1 µM, 5 min), vehicle and modulator-alone signals subtracted: 1.41 ∆BRET^2
[2]
  ebBRET (EMTA) max response, p63RhoGEF-RlucII + rGFP-CAAX, HEK293T; propionate series up to 1 mM: 1.82 ∆BRET^2
[3]
  ebBRET (EMTA) max response, p63RhoGEF-RlucII + rGFP-CAAX, HEK293T; Cmp58 series, alone: 0.33 ∆BRET^2

## Gα13 (from UniProt Q14344 1-377) (natural protein)
[2]
  ebBRET (EMTA) max response, PDZ-RhoGEF-RlucII + rGFP-CAAX, HEK293T; propionate series up to 1 mM: 0.588 ∆BRET^2

## Gα14 (from UniProt O95837 1-355) (natural protein)
[2]
  ebBRET (EMTA) max response, p63RhoGEF-RlucII + rGFP-CAAX, HEK293T; propionate series up to 1 mM: 0.677 ∆BRET^2
[3]
  ebBRET (EMTA) max response, p63RhoGEF-RlucII + rGFP-CAAX, HEK293T; AZ1729 series, alone: 0.614 ∆BRET^2
  ebBRET (EMTA) max response, p63RhoGEF-RlucII + rGFP-CAAX, HEK293T; Cmp58 series, alone: 0.195 ∆BRET^2

## Gα15 (from UniProt P30679 1-374) (natural protein)
[1]
  ebBRET (EMTA) max response, p63RhoGEF-RlucII + rGFP-CAAX, HEK293T; propionate series after AZ1729 (a lower concentration than 1 µM, not given), vehicle and modulator-alone signals subtracted: 0.533 ∆BRET^2
  ebBRET (EMTA) max response, p63RhoGEF-RlucII + rGFP-CAAX, HEK293T; propionate series after Cmp58 (a lower concentration than 1 µM, not given), vehicle and modulator-alone signals subtracted: 0.503 ∆BRET^2
[2]
  ebBRET (EMTA) max response, p63RhoGEF-RlucII + rGFP-CAAX, HEK293T; propionate series up to 1 mM: 0.68 ∆BRET^2
[3]
  ebBRET (EMTA) max response, p63RhoGEF-RlucII + rGFP-CAAX, HEK293T; AZ1729 series, alone: 0.74 ∆BRET^2
  ebBRET (EMTA) max response, p63RhoGEF-RlucII + rGFP-CAAX, HEK293T; Cmp58 + AZ1729 series, no propionate: 0.43 ∆BRET^2
  ebBRET (EMTA) max response, p63RhoGEF-RlucII + rGFP-CAAX, HEK293T; Cmp58 series, alone: 0.588 ∆BRET^2

## Gαi1 (from UniProt P63096 1-354) (natural protein)
[1]
  ebBRET (EMTA) max response, Rap1GAP-RlucII + rGFP-CAAX, HEK293T; propionate series after AZ1729 (1 µM, 5 min), vehicle and modulator-alone signals subtracted: 0.817 ∆BRET^2
  ebBRET (EMTA) max response, Rap1GAP-RlucII + rGFP-CAAX, HEK293T; propionate series after Cmp58 (1 µM, 5 min), vehicle and modulator-alone signals subtracted: 0.841 ∆BRET^2
[2]
  ebBRET (EMTA) max response, Rap1GAP-RlucII + rGFP-CAAX, HEK293T; propionate series up to 1 mM: 0.755 ∆BRET^2
[3]
  ebBRET (EMTA) max response, Rap1GAP-RlucII + rGFP-CAAX, HEK293T; AZ1729 series, alone: 0.584 ∆BRET^2
  ebBRET (EMTA) max response, Rap1GAP-RlucII + rGFP-CAAX, HEK293T; Cmp58 + AZ1729 series, no propionate: 0.6 ∆BRET^2
  ebBRET (EMTA) max response, Rap1GAP-RlucII + rGFP-CAAX, HEK293T; Cmp58 series, alone: 0.525 ∆BRET^2

## Gαi2 (from UniProt P04899 1-355) (natural protein)
[1]
  ebBRET (EMTA) max response, Rap1GAP-RlucII + rGFP-CAAX, HEK293T; propionate series after AZ1729 (1 µM, 5 min), vehicle and modulator-alone signals subtracted: 0.481 ∆BRET^2
  ebBRET (EMTA) max response, Rap1GAP-RlucII + rGFP-CAAX, HEK293T; propionate series after Cmp58 (1 µM, 5 min), vehicle and modulator-alone signals subtracted: 0.74 ∆BRET^2
[2]
  ebBRET (EMTA) max response, Rap1GAP-RlucII + rGFP-CAAX, HEK293T; propionate series up to 1 mM: 0.865 ∆BRET^2
[3]
  ebBRET (EMTA) max response, Rap1GAP-RlucII + rGFP-CAAX, HEK293T; AZ1729 series, alone: 0.664 ∆BRET^2
  ebBRET (EMTA) max response, Rap1GAP-RlucII + rGFP-CAAX, HEK293T; Cmp58 + AZ1729 series, no propionate: 0.59 ∆BRET^2
  ebBRET (EMTA) max response, Rap1GAP-RlucII + rGFP-CAAX, HEK293T; Cmp58 series, alone: 0.567 ∆BRET^2

## Gαi3 (from UniProt P08754 1-354) (natural protein)
[1]
  ebBRET (EMTA) max response, Rap1GAP-RlucII + rGFP-CAAX, HEK293T; propionate series after AZ1729 (1 µM, 5 min), vehicle and modulator-alone signals subtracted: 0.533 ∆BRET^2
  ebBRET (EMTA) max response, Rap1GAP-RlucII + rGFP-CAAX, HEK293T; propionate series after Cmp58 (1 µM, 5 min), vehicle and modulator-alone signals subtracted: 0.485 ∆BRET^2
[2]
  ebBRET (EMTA) max response, Rap1GAP-RlucII + rGFP-CAAX, HEK293T; propionate series up to 1 mM: 0.859 ∆BRET^2
[3]
  ebBRET (EMTA) max response, Rap1GAP-RlucII + rGFP-CAAX, HEK293T; AZ1729 series, alone: 0.553 ∆BRET^2
  ebBRET (EMTA) max response, Rap1GAP-RlucII + rGFP-CAAX, HEK293T; Cmp58 + AZ1729 series, no propionate: 0.485 ∆BRET^2
  ebBRET (EMTA) max response, Rap1GAP-RlucII + rGFP-CAAX, HEK293T; Cmp58 series, alone: 0.574 ∆BRET^2

## GαoA (from UniProt P09471 1-354) (natural protein)
[2]
  ebBRET (EMTA) max response, Rap1GAP-RlucII + rGFP-CAAX, HEK293T; propionate series up to 1 mM: 0.415 ∆BRET^2
[3]
  ebBRET (EMTA) max response, Rap1GAP-RlucII + rGFP-CAAX, HEK293T; AZ1729 series, alone: 0.19 ∆BRET^2
  ebBRET (EMTA) max response, Rap1GAP-RlucII + rGFP-CAAX, HEK293T; Cmp58 series, alone: 0.237 ∆BRET^2

## GαoB (from UniProt P09471-2 1-354) (natural protein)
[1]
  ebBRET (EMTA) max response, Rap1GAP-RlucII + rGFP-CAAX, HEK293T; propionate series after AZ1729 (1 µM, 5 min), vehicle and modulator-alone signals subtracted: 1.62 ∆BRET^2
  ebBRET (EMTA) max response, Rap1GAP-RlucII + rGFP-CAAX, HEK293T; propionate series after Cmp58 (1 µM, 5 min), vehicle and modulator-alone signals subtracted: 1.48 ∆BRET^2
[2]
  ebBRET (EMTA) max response, Rap1GAP-RlucII + rGFP-CAAX, HEK293T; propionate series up to 1 mM: 1.81 ∆BRET^2
[3]
  ebBRET (EMTA) max response, Rap1GAP-RlucII + rGFP-CAAX, HEK293T; AZ1729 series, alone: 0.994 ∆BRET^2
  ebBRET (EMTA) max response, Rap1GAP-RlucII + rGFP-CAAX, HEK293T; Cmp58 + AZ1729 series, no propionate: 0.937 ∆BRET^2
  ebBRET (EMTA) max response, Rap1GAP-RlucII + rGFP-CAAX, HEK293T; Cmp58 series, alone: 0.742 ∆BRET^2

## Gαq (from UniProt P50148 1-359) (natural protein)
[1]
  ebBRET (EMTA) max response, p63RhoGEF-RlucII + rGFP-CAAX, HEK293T; propionate series after AZ1729 (1 µM, 5 min), vehicle and modulator-alone signals subtracted: 1.04 ∆BRET^2
  ebBRET (EMTA) max response, p63RhoGEF-RlucII + rGFP-CAAX, HEK293T; propionate series after Cmp58 (1 µM, 5 min), vehicle and modulator-alone signals subtracted: 1.01 ∆BRET^2
[2]
  ebBRET (EMTA) max response, p63RhoGEF-RlucII + rGFP-CAAX, HEK293T; propionate series up to 1 mM: 1.55 ∆BRET^2
[3]
  ebBRET (EMTA) max response, p63RhoGEF-RlucII + rGFP-CAAX, HEK293T; AZ1729 series, alone: 0.337 ∆BRET^2
  ebBRET (EMTA) max response, p63RhoGEF-RlucII + rGFP-CAAX, HEK293T; Cmp58 + AZ1729 series, no propionate: 0.121 ∆BRET^2
  ebBRET (EMTA) max response, p63RhoGEF-RlucII + rGFP-CAAX, HEK293T; Cmp58 series, alone: 0.132 ∆BRET^2

## Gαz (from UniProt P19086 1-355) (natural protein)
[2]
  ebBRET (EMTA) max response, Rap1GAP-RlucII + rGFP-CAAX, HEK293T; propionate series up to 1 mM: 0.757 ∆BRET^2

## β-arrestin1-RlucII (from UniProt P49407 1-418) (natural protein)
[2]
  ebBRET max response, β-arrestin1-RlucII + rGFP-CAAX (with or without GRK2), HEK293T; propionate series up to 1 mM: 0.23 ∆BRET^2
[3]
  ebBRET max response, β-arrestin1-RlucII + rGFP-CAAX (with or without GRK2), HEK293T; AZ1729 series, alone: 0.166 ∆BRET^2
  ebBRET max response, β-arrestin1-RlucII + rGFP-CAAX (with or without GRK2), HEK293T; Cmp58 series, alone: 0.0827 ∆BRET^2

## β-arrestin2-RlucII (from UniProt P32121 1-409) (natural protein)
[1]
  ebBRET max response, β-arrestin2-RlucII + rGFP-CAAX (with or without GRK2), HEK293T; propionate series after AZ1729 (1 µM, 5 min), vehicle and modulator-alone signals subtracted: 0.775 ∆BRET^2
  ebBRET max response, β-arrestin2-RlucII + rGFP-CAAX (with or without GRK2), HEK293T; propionate series after Cmp58 (1 µM, 5 min), vehicle and modulator-alone signals subtracted: 0.774 ∆BRET^2
[2]
  ebBRET max response, β-arrestin2-RlucII + rGFP-CAAX (with or without GRK2), HEK293T; propionate series up to 1 mM: 0.799 ∆BRET^2
